Experiments:
[1] = target: T1, GST-Rlp24C fragment (C-terminal fragment of the substrate protein Rlp24) (yeast, UniProt Q07915 147-199); assay: SPR; Biacore X100; 200 RU GST-Rlp24C amine-coupled on a CM5 chip, GST alone in the reference cell; 2 µM Drg1 with 1 mM ATPγS injected with or without 200 µg/ml diazaborine; 120 s association, 180 s dissociation; 20 mM HEPES-KOH, 150 mM KOAc, 5 mM Mg(OAc)2, 0.1% Tween-20, 1 mM DTT, pH 6.8; half-life from one-phase exponential decay; details: both partners purified
T1 construct: Rlp24, shuttling ribosome maturation factor of yeast, C-terminal fragment Rlp24C; The GST fusion was immobilised in SPR; also called Rlp24C-domain; source: purified
T1 sequence (looked up): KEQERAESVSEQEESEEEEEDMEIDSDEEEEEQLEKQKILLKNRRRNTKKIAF

[2] = target: the molecule itself; assay: cryo-EM structure; single-particle cryo-EM of full-length wild-type Drg1, 1.75 mg/ml, with 2 mM ATPγS and 200 µg/ml (740 µM) thieno-diazaborine 2b18; 20 mM HEPES-KOH, 150 mM KOAc, 5 mM Mg(OAc)2, 0.005% Tween-20, 1 mM DTT, pH 7.6; no symmetry imposed

fold slower dissociation with diazaborine against without [1]: 2 fold
B1: Drg1 (AAA-ATPase), full-length wild type (enzyme, yeast, UniProt P32794 1-780, looked up)
chain: MAPKSSSSGSKKKSSASSNSADAKASKFKLPAEFITRPHPSKDHGKETCTAYIHPNVLSSLEINPGSFCTVGKIGENGILVIARAGDEEVHPVNVITLSTTIRSVGNLILGDRLELKKAQVQPPYATKVTVGSLQGYNILECMEEKVIQKLLDDSGVIMPGMIFQNLKTKAGDESIDVVITDASDDSLPDVSQLDLNMDDMYGGLDNLFYLSPPFIFRKGSTHITFSKETQANRKYNLPEPLSYAAVGGLDKEIESLKSAIEIPLHQPTLFSSFGVSPPRGILLHGPPGTGKTMLLRVVANTSNAHVLTINGPSIVSKYLGETEAALRDIFNEARKYQPSIIFIDEIDSIAPNRANDDSGEVESRVVATLLTLMDGMGAAGKVVVIAATNRPNSVDPALRRPGRFDQEVEIGIPDVDARFDILTKQFSRMSSDRHVLDSEAIKYIASKTHGYVGADLTALCRESVMKTIQRGLGTDANIDKFSLKVTLKDVESAMVDIRPSAMREIFLEMPKVYWSDIGGQEELKTKMKEMIQLPLEASETFARLGISAPKGVLLYGPPGCSKTLTAKALATESGINFLAVKGPEIFNKYVGESERAIREIFRKARSAAPSIIFFDEIDALSPDRDGSSTSAANHVLTSLLNEIDGVEELKGVVIVAATNRPDEIDAALLRPGRLDRHIYVGPPDVNARLEILKKCTKKFNTEESGVDLHELADRTEGYSGAEVVLLCQEAGLAAIMEDLDVAKVELRHFEKAFKGIARGITPEMLSYYEEFALRSGSSS
notes: Drg1, hexameric type II AAA-ATPase of yeast (N-domain, D1 and D2 AAA-domains), full-length wild type; the atomic model covers amino acids 239-780 of each of the six monomers; Hexamer in the presence of nucleotide (ATPγS); also called Drg1 wild type; wild-type Drg1; source: overexpressed in yeast as GST-Drg1, purified (GSH-agarose, eluted by Prescission protease cleavage from the GST-tag)
stoichiometry N [2]: 6

From PMC8190095, “Structural basis for inhibition of the AAA-ATPase Drg1 by diazaborine” (Nature Communications, 2021)
